Earlier results, collected in PMC8438204, “Unraveling the Thermodynamics of Ultra-tight Binding of Intrinsically Disordered Proteins” (Frontiers in Molecular Biosciences, 2021).

How the values were obtained:
CcdB2 = conditions: ref Drobnak et al., 2013
Experimental: Supplement DataSheet1.docx, table 1: Table S1. Thermodynamic parameters and structural properties of the complexes. All parameters are reported at T = 25°C. | column: Thermodynamic parameters || Nonetheless, a handful of examples of IDP binders with ultra-high affinity have been characterized to date. […] Complexes are ordered according to the degree of energy optimization as estimated by the ΔH bind/ASAint values. For the HigA2_3-23-HigB2 complex the degree of energy optimization is similar to one observed for the pairs of globular high affinity binders (Supplementary Table S1, Figure 3A). […] The high affinit ...

barnase-barstar = conditions: ref Frisch et al., 1997
Experimental: Supplement DataSheet1.docx, table 1: Table S1. Thermodynamic parameters and structural properties of the complexes. All parameters are reported at T = 25°C. | column: Thermodynamic parameters || Next, we examine how the binding energetics of HigA2_3-23-HigB2 compares to other ultra-high affinity complexes formed by globular proteins. These include well-known examples such as the barnase-barstar and the complexes between various immunity proteins and colicin-DNases ([Hartley, 1989]; [Keeble et al., 2006]). The overall Gibbs free energies of globular high affinity complexes (ΔG assoc about −19 kcal/mol) are approximately 3 kcal/mol more negative compared to HigA2_3–23-HigB2. Since no significant conformational changes occur upon formation of globular high affinity complexes in any of th ... || Nonetheless, a handful of examples of IDP binders with ultra-high affinity have been characterized to date.

[1] = test system: E7-Im7 (colicin DNase - immunity protein); conditions: ref Keeble et al., 2006
Experimental: Supplement DataSheet1.docx, table 1: Table S1. Thermodynamic parameters and structural properties of the complexes. All parameters are reported at T = 25°C. | column: Thermodynamic parameters

B1: CcdA (protein, UniProt P62552 1-72, looked up)
Antitoxin CcdA: MKQRITVTVDSDSYQLLKAYDVNISGLVSTTMQNEARRLRAERWKAENQEGMAEVARFIEMNGSFADENRDW
In the case of B1, the “ΔG (association)” value (CcdB2; 25°C) is given as -15.6 kcal/mol and the Kd (CcdB2) is given as 4 pM.

B2: barnase-barstar (protein, UniProt P00648 48-157; P11540 2-90, looked up)
Ribonuclease: AQVINTFDGVADYLQTYHKLPDNYITKSEAQALGWVASKGNLADVAPGKSIGGDIFSNREGKLPGKSGRTWREADINYTSGFRNSDRILYSSDWLIYKTTDHYQTFTKIR
Barstar: KKAVINGEQIRSISDLHQTLKKELALPEYYGENLDALWDCLTGWVEYPLVLEWRQFEQSKQLTENGAESVLQVFREAKAEGCDITIILS
For B2, the “-TΔS” value (barnase-barstar; 25°C) is given as -0.1 kcal/mol, the ΔG (barnase-barstar; 25°C) is given as -19 kcal/mol and the ΔCp (barnase-barstar) is given as -0.36 ± 0.02 kcal mol^-1 K^-1.

B3: E7-Im7 (protein, UniProt Q47112 1-576; Q03708 1-87, looked up)
Colicin-E7: MSGGDGRGHNSGAHNTGGNINGGPTGLGGNGGASDGSGWSSENNPWGGGSGSGVHWGGGSGHGNGGGNSNSGGGSNSSVAAPMAFGFPALAAPGAGTLGISVSGEALSAAIADIFAALKGPFKFSAWGIALYGILPSEIAKDDPNMMSKIVTSLPAETVTNVQVSTLPLDQATVSVTKRVTDVVKDTRQHIAVVAGVPMSVPVVNAKPTRTPGVFHASFPGVPSLTVSTVKGLPVSTTLPRGITEDKGRTAVPAGFTFGGGSHEAVIRFPKESGQKPVYVSVTDVLTPAQVKQRQDEEKRLQQEWNDAHPVEVAERNYEQARAELNQANKDVARNQERQAKAVQVYNSRKSELDAANKTLADAKAEIKQFERFAREPMAAGHRMWQMAGLKAQRAQTDVNNKKAAFDAAAKEKSDADVALSSALERRKQKENKEKDAKAKLDKESKRNKPGKATGKGKPVNNKWLNNAGKDLGSPVPDRIANKLRDKEFKSFDDFRKKFWEEVSKDPELSKQFSRNNNDRMKVGKAPKTRTQDVSGKRTSFELHHEKPISQNGGVYDMDNISVVTPKRHIDIHRGK
Colicin-E7 immunity protein: MELKNSISDYTEAEFVQLLKEIEKENVAATDDVLDVLLEHFVKITEHPDGTDLIYYPSDNRDDSPEGIVKEIKEWRAANGKPGFKQG
In the case of B3, the “-TΔS” value ([1]; 25°C) is given as 10.5 kcal/mol, the ΔG ([1]; 25°C) is given as -19.8 kcal/mol and the ΔH ([1]; 25°C) is given as -30.3 ± 0.8 kcal/mol. The ΔCp [1] was -0.69 kcal mol^-1 K^-1.
